Target: Pol gamma A R853A exo-;Pol gamma B deltaI4 (human;human?, UniProt P54098;Q9UHN1 1-1239;1-485, D198A;E200A;R853A|del136-182)
Test: X-ray crystal structure (3.4 A); dCTP (2 mM), 10 mM CaCl2; ternary complex, dCTP not paired with template dG; Crystal: 63.5 uM protein, 114.3 uM DNA, 10 mM CaCl2, 2 mM dCTP; well 100 mM MES pH 6.0, 150 mM NaCl, 10 mM CaCl2, 50 mM BME, 3% PEG-8000, 1-8% sucrose, 2% Jeffa
Details: protein: recombinant;recombinant; (Ni-NTA purified); copies: 1;2; 5' overhang 4 nt (template strand), recessed primer 3' end

Sequence of Pol gamma A R853A exo-;Pol gamma B deltaI4 (P54098 whole entry D198A/E200A/R853A, chain 1 of 2): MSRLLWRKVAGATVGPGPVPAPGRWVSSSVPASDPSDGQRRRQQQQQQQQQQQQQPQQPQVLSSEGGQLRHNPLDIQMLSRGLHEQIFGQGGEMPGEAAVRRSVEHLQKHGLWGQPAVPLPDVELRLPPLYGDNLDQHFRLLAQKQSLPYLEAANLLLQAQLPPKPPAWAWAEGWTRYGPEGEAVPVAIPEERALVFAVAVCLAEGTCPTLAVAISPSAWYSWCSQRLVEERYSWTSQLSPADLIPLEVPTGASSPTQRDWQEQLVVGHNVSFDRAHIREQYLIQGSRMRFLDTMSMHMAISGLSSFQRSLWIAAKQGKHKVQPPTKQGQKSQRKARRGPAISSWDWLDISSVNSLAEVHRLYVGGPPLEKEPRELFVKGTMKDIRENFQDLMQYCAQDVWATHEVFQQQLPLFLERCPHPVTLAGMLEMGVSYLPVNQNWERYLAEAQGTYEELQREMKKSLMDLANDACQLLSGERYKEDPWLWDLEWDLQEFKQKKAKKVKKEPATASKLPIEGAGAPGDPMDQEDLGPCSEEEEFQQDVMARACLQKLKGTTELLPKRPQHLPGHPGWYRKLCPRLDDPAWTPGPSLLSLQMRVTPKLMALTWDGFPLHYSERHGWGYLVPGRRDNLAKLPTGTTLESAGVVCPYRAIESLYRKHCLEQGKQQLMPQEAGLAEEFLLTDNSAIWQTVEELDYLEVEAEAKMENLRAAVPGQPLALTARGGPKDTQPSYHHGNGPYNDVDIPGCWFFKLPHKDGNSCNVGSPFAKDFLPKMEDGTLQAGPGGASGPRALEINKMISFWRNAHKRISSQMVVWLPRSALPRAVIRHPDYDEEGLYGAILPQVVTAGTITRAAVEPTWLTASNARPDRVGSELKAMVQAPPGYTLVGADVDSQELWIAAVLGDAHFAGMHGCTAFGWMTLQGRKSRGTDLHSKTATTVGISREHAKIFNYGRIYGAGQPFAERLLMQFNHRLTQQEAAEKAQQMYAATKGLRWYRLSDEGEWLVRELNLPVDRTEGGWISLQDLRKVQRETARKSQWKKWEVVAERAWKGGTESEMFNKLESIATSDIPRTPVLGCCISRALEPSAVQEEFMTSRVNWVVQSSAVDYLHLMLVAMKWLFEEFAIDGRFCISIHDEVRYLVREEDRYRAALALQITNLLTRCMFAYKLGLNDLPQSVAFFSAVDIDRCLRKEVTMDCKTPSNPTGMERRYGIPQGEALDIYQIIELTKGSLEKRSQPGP
Sequence of Pol gamma A R853A exo-;Pol gamma B deltaI4 (Q9UHN1 other isoform, or with tags, fused parts or gaps D198A;E200A;R853A|del136-182 | R853A R853A, chain 2 of 2): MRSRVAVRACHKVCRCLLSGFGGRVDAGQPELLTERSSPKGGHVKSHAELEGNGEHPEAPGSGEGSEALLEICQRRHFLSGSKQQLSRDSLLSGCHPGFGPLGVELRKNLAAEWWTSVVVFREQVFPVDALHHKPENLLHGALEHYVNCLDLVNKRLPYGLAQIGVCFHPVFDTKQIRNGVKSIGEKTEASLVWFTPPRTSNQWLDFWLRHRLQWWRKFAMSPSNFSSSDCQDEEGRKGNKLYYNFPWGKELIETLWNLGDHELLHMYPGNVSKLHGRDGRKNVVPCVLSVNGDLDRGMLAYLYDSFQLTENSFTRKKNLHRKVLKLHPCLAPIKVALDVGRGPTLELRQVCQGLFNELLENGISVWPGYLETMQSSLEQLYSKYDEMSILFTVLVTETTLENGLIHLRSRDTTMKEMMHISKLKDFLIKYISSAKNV

B1: 24-nt/28-nt primer/template, ddC-terminated primer (crystal) (dsDNA)
DNA 1: CGAAAACGACGGCCAGTGCCATAC
DNA 2: CGAGGTATGGCACTGGCCGTCGTTTTCG
modifications: 2',3'-dideoxyC at primer 3' end (position 24 of strand 1)
B1: binds.

Source: PMC11122685, “An interaction network in the polymerase active site is a prerequisite for Watson-Crick base pairing in Pol γ”
